Experimental findings from patent US20140287434 are described below.

Data set [1] deals with Tec SH3.
The subject of data set [2] is Tec SH3-SH2 (Tec 32).
Data set [3] concerns the target T1, Itk SH3-Linker (Itk 3Linker), Q03526.
T1 chain: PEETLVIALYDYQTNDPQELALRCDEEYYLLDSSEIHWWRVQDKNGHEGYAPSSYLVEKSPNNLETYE

The target of data set [4] is Itk SH3-SH2 (Itk 32), Q03526.
Data set [5] addresses T2, PLCγ1 SH2C -Y783-, P10686.
T2 chain: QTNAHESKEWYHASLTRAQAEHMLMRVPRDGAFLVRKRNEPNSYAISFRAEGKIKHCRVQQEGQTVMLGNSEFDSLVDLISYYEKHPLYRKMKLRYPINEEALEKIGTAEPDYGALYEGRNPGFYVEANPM

Data set [6] deals with N-terminal Phosphatidylinositol 3-Kinase (p85α) SH2 domain (PI3K SH2).
The target of data set [7] is Grb2 SH2 domain.
In data set [8] the target is T3, free Itk SH2 domain, Q03526.
T3 chain: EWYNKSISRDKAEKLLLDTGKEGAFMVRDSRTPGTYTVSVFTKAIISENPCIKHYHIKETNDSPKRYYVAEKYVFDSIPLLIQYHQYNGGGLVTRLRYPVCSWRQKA

Data set [9] has as its target T4, Itk SH3, Q03526.
T4 chain: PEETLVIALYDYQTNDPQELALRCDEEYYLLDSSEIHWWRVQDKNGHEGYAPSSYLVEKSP

Data set [10] addresses T5, PLCγ1 -Y783-SH3, P10686.
T5 chain: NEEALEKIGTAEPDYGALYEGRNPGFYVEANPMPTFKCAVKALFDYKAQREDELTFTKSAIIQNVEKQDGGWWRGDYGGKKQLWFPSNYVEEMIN

Data set [11] addresses T6, free PLCγ1 SH2C domain, P10686.
T6 chain: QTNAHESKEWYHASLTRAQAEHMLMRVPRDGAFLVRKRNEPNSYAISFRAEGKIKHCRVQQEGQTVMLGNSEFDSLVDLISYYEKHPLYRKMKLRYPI

In data set [12] the target is full-length wild-type Lck.
The target of data set [13] is T7, Peptide B.
T7 chain: EQEDEPEGIYGVLF

Data set [14] has as its target T8, biotinylated PLCγ1 SH2C-Peptide B fusion protein, P10686.
T8 chain: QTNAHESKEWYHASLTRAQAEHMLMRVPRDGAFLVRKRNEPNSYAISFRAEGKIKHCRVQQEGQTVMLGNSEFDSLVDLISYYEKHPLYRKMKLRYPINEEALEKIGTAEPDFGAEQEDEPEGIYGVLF

Substitutions are numbered along the chain they refer to. Names and notes keep the numbering of the source.

Grb2 SH2 domain, sequence (chain, as listed by the source): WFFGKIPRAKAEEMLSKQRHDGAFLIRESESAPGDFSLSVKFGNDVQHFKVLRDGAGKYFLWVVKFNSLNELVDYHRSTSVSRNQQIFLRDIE

B1: FLAG-tagged Tec full-length enzyme (enzyme, UniProt P42680 1-631, looked up, species assumed)
chain: MNFNTILEEILIKRSQQKKKTSPLNYKERLFVLTKSMLTYYEGRAEKKYRKGFIDVSKIKCVEIVKNDDGVIPCQNKYPFQVVHDANTLYIFAPSPQSRDLWVKKLKEEIKNNNNIMIKYHPKFWTDGSYQCCRQTEKLAPGCEKYNLFESSIRKALPPAPETKKRRPPPPIPLEEEDNSEEIVVAMYDFQAAEGHDLRLERGQEYLILEKNDVHWWRARDKYGNEGYIPSNYVTGKKSNNLDQYEWYCRNMNRSKAEQLLRSEDKEGGFMVRDSSQPGLYTVSLYTKFGGEGSSGFRHYHIKETTTSPKKYYLAEKHAFGSIPEIIEYHKHNAAGLVTRLRYPVSVKGKNAPTTAGFSYEKWEINPSELTFMRELGSGLFGVVRLGKWRAQYKVAIKAIREGAMCEEDFIEEAKVMMKLTHPKLVQLYGVCTQQKPIYIVTEFMERGCLLNFLRQRQGHFSRDVLLSMCQDVCEGMEYLERNSFIHRDLAARNCLVSEAGVVKVSDFGMARYVLDDQYTSSSGAKFPVKWCPPEVFNYSRFSSKSDVWSFGVLMWEVFTEGRMPFEKYTNYEVVTMVTRGHRLYQPKLASNYVYEVMLRCWQEKPEGRPSFEDLLRTIDELVECEETFGR
modifications: full-length FLAG tag
Take B1: the “phosphorylation on Y187 in an in vitro kinase assay” value in data set [1] was “are not phosphorylated by the Tec and Btk kinases”; in data set [2], “only substrates that contain both the site of phosphorylation (Y180 for Itk, Y187 for Tec, Y223 for Btk, and Y783 for PLCγ1) and the adjacent SH2 domain are phosphorylated by the Tec kinases”.

B2: FLAG-tagged Itk full-length (FLItk) enzyme (protein)
chain: MNNFILLEEQLIKKSQQKRRTSPSNFKVRFFVLTKASLAYFEDRHGKKRTLKGSIELSRIKCVEIVKSDISIPCHYKYPFQTLVYLQVVHDNYLLYVFAPDCESRQRWVLTLKEETRNNNSLVSKYHPNFWMDGRWRCCSQLEKPAVGCAPYDPSKNASKKPLPPTPEDNRRSFQEPEETLVIALYDYQTNDPQELALRCDEEYYLLDSSEIHWWRVQDKNGHEGYAPSSYLVEKSPNNLETYEWYNKSISRDKAEKLLLDTGKEGAFMVRDSRTPGTYTVSVFTKAIISENPCIKHYHIKETNDSPKRYYVAEKYVFDSIPLLIQYHQYNGGGLVTRLRYPVCSWRQKAPVTAGLRYGKWVIQPSELTFVQEIGSGQFGLVHLGYWLNKDKVAIKTIQEGAMSEEDFIEEAEVMMKLSHPKLVQLYGVCLEQAPICLVFEFMEHGCLSDYLRSQRGLFAAETLLGMCLDVCEGMAYLEKACVIHRDLAARNCLVGENQVIKVSDFGMTRFVLDDQYTSSTGTKFPVKWASPEVFSFSRYSSKSDVWSFGVLMWEVFSEGKIPYENRSNSEVVEDISTGFRLYKPRLASCHVYQIMNHCWKEKPEDRPPFSQLLSQLAEIAEAGL
B2: the “phosphorylation on Y180 in an in vitro kinase assay” value in data set [3] was “Only Itk fragments that contain the SH2 domain and Y180 are phosphorylated by Itk”; in data set [4], “only substrates that contain both the site of phosphorylation (Y180 for Itk, Y187 for Tec, Y223 for Btk, and Y783 for PLCγ1) and the adjacent SH2 domain are phosphorylated by the Tec kinases”; in data set [9], “the isolated SH3 domain does not serve as a substrate for full length Itk”. The “phosphorylation on Y783 in an in vitro kinase assay” value in data set [5] was “only substrates that contain both the site of phosphorylation (Y180 for Itk, Y187 for Tec, Y223 for Btk, and Y783 for PLCγ1) and the adjacent SH2 domain are phosphorylated by the Tec kinases”; in [10] it was “is not phosphorylated by full length Itk”. Moreover, the “phosphorylation of Itk 32 and PLCγ1 SH2C -Y783- by full-length Itk” value in data set [6] was “two different control SH2 domains (derived from PI3K and Grb2) do not inhibit the phosphorylation of the substrates even at large molar excess”; in data set [7], “two different control SH2 domains (derived from PI3K and Grb2) do not inhibit the phosphorylation of the substrates even at large molar excess”. In data set [8], the “autophosphorylation of Tyr 180 within full length Itk” value is reported as “autophosphorylation at this site is greatly diminished upon addition of free Itk SH2 domain”. The “initial velocity of peptide B phosphorylation by full length Itk” value in [8] is listed as “do not change significantly with increasing concentrations of Itk SH2 domain”. In data set [8], the “phosphorylation of Itk 32 substrate on Y180 by full-length Itk (anti-pY180 blot)” value is given as “free Itk SH2 domain competes with the Itk 32 substrate”. For the same protein, in data set [11], the “phosphorylation of PLCγ1 SH2C -Y783- substrate by full-length Itk (anti-pY783 blot)” value is listed as “The PLCγ1 SH2 domain competes with the PLCγ1 substrate in a similar manner”.

B3: Catalytically inactive (K390R) Itk SH2-kinase domain (2KD) (protein)
chain: EWYNKSISRDKAEKLLLDTGKEGAFMVRDSRTPGTYTVSVFTKAIISENPCIKHYHIKETNDSPKRYYVAEKYVFDSIPLLIQYHQYNGGGLVTRLRYPVCSWRQKAPVTAGLRYGKWVIQPSELTFVQEIGSGQFGLVHLGYWLNRDKVAIKTIQEGAMSEEDFIEEAEVMMKLSHPKLVQLYGVCLEQAPICLVFEFMEHGCLSDYLRSQRGLFAAETLLGMCLDVCEGMAYLEKACVIHRDLAARNCLVGENQVIKVSDFGMTRFVLDDQYTSSTGTKFPVKWASPEVFSFSRYSSKSDVWSFGVLMWEVFSEGKIPYENRSNSEVVEDISTGFRLYKPRLASCHVYQIMNHCWKEKPEDRPPFSQLLSQLAEIAEAGL
Take B3: in [12], the “phosphorylation of Itk Y511 by Lck (Btk phosphoY551 antibody blot)” value is given as “Lck phosphorylation of the SH2-kinase fragment of Itk proceeds readily”.

B4: FLAG-tagged Itk kinase domain (Itk KD) (protein)
chain: VIQPSELTFVQEIGSGQFGLVHLGYWLNKDKVAIKTIQEGAMSEEDFIEEAEVMMKLSHPKLVQLYGVCLEQAPICLVFEFMEHGCLSDYLRSQRGLFAAETLLGMCLDVCEGMAYLEKACVIHRDLAARNCLVGENQVIKVSDFGMTRFVLDDQYTSSTGTKFPVKWASPEVFSFSRYSSKSDVWSFGVLMWEVFSEGKIPYENRSNSEVVEDISTGFRLYKPRLASCHVYQIMNHCWKEKPEDRPPFSQLLSQLAEIAEAGL
As for B4, the “phosphorylation of Itk 32 by the isolated Itk kinase domain (anti-pY180 blot)” value in data set [4] is given as “The Itk catalytic fragment leads to substrate phosphorylation”.

B5: Catalytically inactive (K390R) Itk kinase domain (KD) (protein)
chain: B4 chain with K29R
B5: the “phosphorylation of Itk Y511 by Lck (Btk phosphoY551 antibody blot)” value in data set [12] is “phosphorylation of the Itk kinase domain alone (on Y511) by Lck is very inefficient”.

B6: FLAG-tagged Itk LKD enzyme (protein)
chain: CSWRQKAPVTAGLRYGKWVIQPSELTFVQEIGSGQFGLVHLGYWLNKDKVAIKTIQEGAMSEEDFIEEAEVMMKLSHPKLVQLYGVCLEQAPICLVFEFMEHGCLSDYLRSQRGLFAAETLLGMCLDVCEGMAYLEKACVIHRDLAARNCLVGENQVIKVSDFGMTRFVLDDQYTSSTGTKFPVKWASPEVFSFSRYSSKSDVWSFGVLMWEVFSEGKIPYENRSNSEVVEDISTGFRLYKPRLASCHVYQIMNHCWKEKPEDRPPFSQLLSQLAEIAEAGL
Take B6: the Km in data set [13] turned out to be 87 µM for Peptide B alone. Also, in data set [14], the Km is 5.64 µM for the SH2-Peptide B fusion, the “fold increase in substrate affinity against Peptide B alone” value is listed as “exhibiting a 15-fold increase in substrate affinity” and the “kcat/Km against Peptide B alone” value was “Peptide B is a better substrate by 7-fold (kat/Km) when tethered to the SH2 domain of PLCγ1”.
